Measured values as given in the Human Domainome abundance scans (Beltran et al. 2025).
± gives the uncertainty stated by the source.

B1: Homeobox protein cut-like 1, residues 548 to 629; numbered along this chain, P39880 (parent)
chain: GEEMDTAEIARQVKEQLIKHNIGQRIFGHYVLGLSQGSVSEILARPKPWNKLTVRGKEPFHKMKQFLSDEQNILALRSIQGR

Variants of: B1
Experiment: abundance fitness (aPCA) (normalised: wild type 0, dead -1); higher = more abundant; growth selection in yeast, the domain comes from the species named
Settings: Homo sapiens

Variant	abundance fitness
I79Y	-0.097 ± 0.061
I79P	-0.229 ± 0.041
I79R	-0.065 ± 0.027
I79D	-0.233 ± 0.055
I79C	0.003 ± 0.055
I79V	0.015 ± 0.028
I79F	-0.086 ± 0.056
I79G	-0.203 ± 0.027
I79W	-0.09 ± 0.04
I79T	-0.157 ± 0.037
I79E	-0.058 ± 0.034
I79H	-0.009 ± 0.05
I79Q	0.011 ± 0.039
I79M	0.046 ± 0.039
I79K	0.038 ± 0.041
I79A	-0.047 ± 0.03
I79L	0.028 ± 0.03
I73D	-0.745 ± 0.088
I73E	-0.637 ± 0.048
I73T	-0.163 ± 0.039
I73C	-0.129 ± 0.059
I73L	-0.064 ± 0.033
I73A	-0.019 ± 0.032
I73S	0.005 ± 0.036
I73H	-0.5 ± 0.088
I73Q	-0.336 ± 0.048

Variant	abundance fitness
I73F	-0.026 ± 0.06
I73P	-0.303 ± 0.048
I73N	-0.51 ± 0.075
I73Y	-0.627 ± 0.13
I73R	-0.56 ± 0.034
I73G	-0.44 ± 0.03
I73V	0.038 ± 0.029
I73M	-0.064 ± 0.038
I73W	0.05 ± 0.032
R82L	-0.06 ± 0.047
R82G	0.117 ± 0.035
R82P	0.065 ± 0.063
R82A	0.013 ± 0.047
R82M	-0.047 ± 0.056
R82N	0.076 ± 0.089
R82S	0.011 ± 0.046
R82V	0.024 ± 0.046
R82T	-0.039 ± 0.052
R82K	0.123 ± 0.07
R82D	-0.092 ± 0.07
R82E	0.047 ± 0.05
R82Q	0.172 ± 0.067
R82C	-0.054 ± 0.076
R82W	-0.149 ± 0.049
R82Y	-0.079 ± 0.067
R82H	0.063 ± 0.13

Variant	abundance fitness
L74Y	-0.112 ± 0.054
L74G	-0.159 ± 0.026
L74H	0.007 ± 0.052
L74D	-0.019 ± 0.046
L74W	-0.098 ± 0.032
L74Q	0.005 ± 0.042
L74A	-0.039 ± 0.031
L74F	-0.028 ± 0.054
L74V	0.017 ± 0.029
L74S	-0.083 ± 0.032
L74I	0.032 ± 0.052
L74T	-0.087 ± 0.041
L74K	0.029 ± 0.036
L74N	-0.064 ± 0.059
L74C	-0.162 ± 0.049
L74R	-0.041 ± 0.026
L74E	0.008 ± 0.034
L74M	-0.074 ± 0.041
L74P	-0.417 ± 0.049
L76E	-0.758 ± 0.063
L76D	-0.716 ± 0.092
L76A	-0.638 ± 0.052
L76N	-0.856 ± 0.16
L76M	-0.461 ± 0.054
L76P	-0.586 ± 0.12
L76R	-0.945 ± 0.057

Variant	abundance fitness
L76C	-0.484 ± 0.061
L76G	-0.806 ± 0.04
L76S	-0.697 ± 0.056
L76T	-0.752 ± 0.086
L76K	-0.861 ± 0.12
L76V	-0.357 ± 0.035
L76I	-0.291 ± 0.066
L76Q	-0.6 ± 0.086
A75F	-0.066 ± 0.061
A75I	-0.146 ± 0.059
A75D	0.109 ± 0.049
A75L	-0.061 ± 0.032
A75T	0.012 ± 0.037
A75W	0.009 ± 0.033
A75K	0.095 ± 0.04
A75Q	0.038 ± 0.047
A75E	0.092 ± 0.034
A75R	0.05 ± 0.026
A75P	-0.314 ± 0.047
A75S	0.041 ± 0.031
A75N	0.187 ± 0.061
A75V	-0.127 ± 0.033
A75M	-0.039 ± 0.037
A75C	-0.11 ± 0.049
A75Y	-0.027 ± 0.05
G81Y	-0.163 ± 0.07

Variant	abundance fitness
G81R	-0.021 ± 0.036
G81N	0.117 ± 0.065
G81F	-0.138 ± 0.059
G81T	0.037 ± 0.047
G81A	0.044 ± 0.037
G81I	0.008 ± 0.057
G81K	-0.068 ± 0.054
G81L	-0.097 ± 0.042
G81E	0.105 ± 0.048
G81D	0.043 ± 0.04
G81Q	0.095 ± 0.054
G81C	0.027 ± 0.047
G81V	0.024 ± 0.035
G81S	-0.028 ± 0.038
G81P	-0.103 ± 0.077
G81W	-0.077 ± 0.052
G81H	0.04 ± 0.08
Q80S	-0.017 ± 0.036
Q80H	-0.075 ± 0.06
Q80N	-0.026 ± 0.059
Q80M	-0.079 ± 0.038
Q80I	-0.098 ± 0.059
Q80P	-0.098 ± 0.042
Q80T	-0.095 ± 0.038
Q80Y	-0.188 ± 0.055
Q80A	0.034 ± 0.032

Variant	abundance fitness
Q80D	-0.089 ± 0.056
Q80F	-0.278 ± 0.062
Q80V	0 ± 0.03
Q80K	-0.12 ± 0.039
Q80W	-0.307 ± 0.037
Q80C	-0.028 ± 0.049
Q80E	0 ± 0.037
Q80G	-0.06 ± 0.027
Q80R	-0.176 ± 0.028
Q80L	-0.126 ± 0.035
R77S	0.041 ± 0.03
R77E	-0.005 ± 0.035
R77I	-0.116 ± 0.057
R77C	-0.032 ± 0.046
R77P	-0.419 ± 0.062
R77A	0.049 ± 0.03
R77G	-0.086 ± 0.026
R77K	0.103 ± 0.043
R77L	-0.073 ± 0.032
R77W	-0.336 ± 0.041
R77Q	0.018 ± 0.042
R77M	-0.096 ± 0.042
R77D	-0.292 ± 0.057
R77V	-0.035 ± 0.031
R77H	-0.096 ± 0.088
R77F	-0.511 ± 0.07

Variant	abundance fitness
R77N	-0.118 ± 0.057
S78N	0.018 ± 0.049
S78P	-0.359 ± 0.07
S78E	0.087 ± 0.034
S78T	0.005 ± 0.04
S78F	-0.188 ± 0.055
S78G	0.003 ± 0.025
S78I	-0.066 ± 0.052
S78C	-0.107 ± 0.043
S78A	0.042 ± 0.032
S78V	-0.139 ± 0.03
S78H	-0.053 ± 0.061
S78Y	-0.223 ± 0.052
S78K	0.044 ± 0.04
S78M	-0.009 ± 0.043
S78W	-0.201 ± 0.036
S78D	0.097 ± 0.039
S78R	0.003 ± 0.027
N72W	-0.131 ± 0.035
N72Y	-0.099 ± 0.053
